The record followed here is paper PMC12377726 (Proceedings of the National Academy of Sciences of the …, 2025).

To fix the notation:
B1: G001_LD_V05_VRC01c_17 (antibody, V domains shown)
VH: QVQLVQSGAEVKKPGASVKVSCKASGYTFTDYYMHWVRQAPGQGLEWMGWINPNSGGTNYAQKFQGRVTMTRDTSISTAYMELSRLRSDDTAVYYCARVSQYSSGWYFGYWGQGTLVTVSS
VL: DIQMTQSPSSLSASVGDRVTITCQASQDISNYLNWYQQKPGKAPKLLIYDASNLETGVPSRFSGSGSGTDFTFTISSLQPEDIATYYCQQYEFFGGGTKVEIK
B2: G001_gp1_V06_VRC01c_2021-0008 (antibody, V domains shown)
VH: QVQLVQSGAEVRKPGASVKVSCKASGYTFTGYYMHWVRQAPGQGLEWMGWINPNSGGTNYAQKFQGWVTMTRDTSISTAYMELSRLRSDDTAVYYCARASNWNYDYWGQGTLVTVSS
VL: B1 VL with E55Q, E92D
B3: G001_gp1_V06_VRC01c_2021-0004 (antibody, V domains shown)
VH: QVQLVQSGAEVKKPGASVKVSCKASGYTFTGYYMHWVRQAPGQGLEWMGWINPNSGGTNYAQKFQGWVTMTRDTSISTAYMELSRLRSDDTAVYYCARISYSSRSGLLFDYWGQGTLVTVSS
VL: B1 VL with E92N, F93T
B4: G001_LD_V05_VRC01c_30 (antibody, V domains shown)
VH: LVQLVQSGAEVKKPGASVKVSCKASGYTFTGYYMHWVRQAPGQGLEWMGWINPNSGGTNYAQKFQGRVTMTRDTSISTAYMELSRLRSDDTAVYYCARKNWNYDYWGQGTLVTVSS
VL: B1 VL with A13T, S30T, E92D, F93N
B5: G001_LD_V05_VRC01c_20 (antibody, V domains shown)
VH: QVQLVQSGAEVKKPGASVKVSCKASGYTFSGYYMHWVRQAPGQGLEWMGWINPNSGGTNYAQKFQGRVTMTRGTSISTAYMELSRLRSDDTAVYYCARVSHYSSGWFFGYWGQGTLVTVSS
VL: B1 VL with E92D
B6: G001_gp1_V06_VRC01c_83 (antibody, V domains shown)
VH: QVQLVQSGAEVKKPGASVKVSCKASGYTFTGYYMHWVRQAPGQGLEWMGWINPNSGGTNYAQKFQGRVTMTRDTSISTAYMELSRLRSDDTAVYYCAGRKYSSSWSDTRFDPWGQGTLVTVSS
VL: B1 VL with S30N, F93A, G96Q
B7: G001_gp1_V06_VRC01c_2021-0006 (antibody, V domains shown)
VH: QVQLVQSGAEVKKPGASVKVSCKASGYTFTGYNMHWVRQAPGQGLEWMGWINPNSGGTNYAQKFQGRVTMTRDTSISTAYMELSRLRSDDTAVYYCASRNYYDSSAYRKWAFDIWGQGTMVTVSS
VL: B1 VL with S30N, F93T, G96Q, K99R, V100L
B8: G001_LD_V05_VRC01c_29 (antibody, V domains shown)
VH: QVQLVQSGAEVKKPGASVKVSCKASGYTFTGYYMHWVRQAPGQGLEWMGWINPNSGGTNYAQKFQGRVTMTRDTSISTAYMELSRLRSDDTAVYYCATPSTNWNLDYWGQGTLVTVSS
VL: B1 VL with T74S, E81D, F93G, G96P, E101D
B9: G001_gp1_V06_VRC01c_2021-0021 (antibody, V domains shown)
VH: QVQLVQSGAEVKKPGASVKVSCKASGYTFTGDYMHWVRQAPGQGLEWMGWINPNSGGTNYAQKFEGWVTMTRDTSISTAYMELSRLRSDDTAVYYCARTPYSSSWLFNYWGQGTLVTVSS
VL: B1 VL with Y32F, D70N, E92D, F93L, G96P, E101D
B10: G001_gp1_V06_VRC01c_2021-0020 (antibody, V domains shown)
VH: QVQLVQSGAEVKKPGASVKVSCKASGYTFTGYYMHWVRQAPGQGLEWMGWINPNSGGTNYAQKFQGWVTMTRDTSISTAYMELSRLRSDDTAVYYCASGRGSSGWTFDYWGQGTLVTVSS
VL: B1 VL with Y32F, Y36F, E92D, F93N, G96P, E101D
B11: G001_LD_V05_VRC01c_21 (antibody, V domains shown)
VH: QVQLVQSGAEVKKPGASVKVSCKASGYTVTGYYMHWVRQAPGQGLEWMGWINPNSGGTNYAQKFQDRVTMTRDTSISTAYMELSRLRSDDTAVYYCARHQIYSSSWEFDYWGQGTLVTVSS
VL: B1 VL with S77I, I83T, E92D, F93T, G96P, E101D
B12: G001_gp1_V06_VRC01c_2021-0005 (antibody, V domains shown)
VH: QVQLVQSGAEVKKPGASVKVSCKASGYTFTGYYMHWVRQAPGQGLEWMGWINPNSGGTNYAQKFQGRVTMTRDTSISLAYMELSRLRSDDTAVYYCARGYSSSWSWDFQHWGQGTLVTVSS
VL: DIQMTQSPSTLSASVGDRVTITCRASQSISSWLAWYQQKPGKAPKLLIYKASSLESGVPSRFSGSGSGTEFTLTISSLQPDDFATYYCQQYETFGQGTKVEIK
B13: G001_gp1_V06_VRC01c_2021-0015 (antibody, V domains shown)
VH: not shown
VL: B12 VL with Y91W
B14: G001_gp1_V06_VRC01c_2021-0030 (antibody, V domains shown)
VH: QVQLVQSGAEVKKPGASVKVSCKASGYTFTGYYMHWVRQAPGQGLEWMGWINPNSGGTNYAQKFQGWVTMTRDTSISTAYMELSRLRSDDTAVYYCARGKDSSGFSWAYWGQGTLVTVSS
VL: B12 VL with E92A
B15: G001_gp1_V06_VRC01c_2021-0018 (antibody, V domains shown)
VH: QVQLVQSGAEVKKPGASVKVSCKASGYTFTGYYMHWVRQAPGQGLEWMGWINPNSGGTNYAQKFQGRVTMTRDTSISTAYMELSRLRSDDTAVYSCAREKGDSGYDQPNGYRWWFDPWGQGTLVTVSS
VL: B12 VL
B16: G001_gp1_V06_VRC01c_79 (antibody, V domains shown)
VH: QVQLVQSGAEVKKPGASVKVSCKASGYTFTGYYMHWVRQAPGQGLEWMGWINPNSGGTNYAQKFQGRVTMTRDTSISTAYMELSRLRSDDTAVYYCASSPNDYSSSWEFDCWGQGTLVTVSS
VL: EIVLTQSPGTLSLSPGERATLSCRASQSSSHLAWYQQKHGQAPRLLIYGASSRATGIPDRFSGSGSGTDFTLTISRLEPEDFAVYHCQQYETFGQGTKVEIK
B17: G001_gp1_V06_VRC01c_2021-0003 (antibody, V domains shown)
VH: QVQLVQSGAEVKKPGASVKVSCKASGYTFTGYYIHWVRQAPGQGLEWMGWINPNSGGTNYAQKFQGWVTMTRDTSISTAYMELRRLRSDDTAVYYCARVKDYYDSIGGWYFDLWGRGTLVTVSS
VL: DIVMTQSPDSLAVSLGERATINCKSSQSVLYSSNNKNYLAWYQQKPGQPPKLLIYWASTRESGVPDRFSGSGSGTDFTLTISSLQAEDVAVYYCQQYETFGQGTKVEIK
B18: G001_gp1_V06_VRC01c_76 (antibody, V domains shown)
VH: QVHLVQSGAEVKKPGASVKVSCKASEYTFSDYYMHWVRQAPGQGLEWMGWINPNSGGTNYAQKFQGRVTMTRDTSISTAYMELSRLRSDDTAVYYCATRGTGRYSYGSGTFYDYWGQGTLVTVSS
VL: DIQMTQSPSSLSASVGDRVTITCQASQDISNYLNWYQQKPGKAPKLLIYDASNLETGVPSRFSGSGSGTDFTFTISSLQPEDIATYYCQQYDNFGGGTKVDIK
B19: G001_gp1_V06_VRC01c_2021-0011 (antibody, V domains shown)
VH: QVQLVQSGAEVKKPGASVKVSCKASGYTFTGYYLHWVRQAPGQGLEWMGWINPNSGGTNYAQKFQGWVTMTRDTSISTAYMELSRLRSDDTAVYYCAVKDLDTMVRGGAFVFWGQGTMVTVSS
VL: DIQLTQSPSFLSASVGDRVTITCRASQGISSYLAWYQQKPGKAPKLLIYAASTLQSGVPSRFSGSGSGTEFTLTISSLQPEDFATYYCQQLNSFGGGTKVEIK
B20: G001_gp1_V06_VRC01c_2021-0010 (antibody, V domains shown)
VH: QVQLVQSGAEVKKPGASVKVSCKASGYTFTGYYMQWMRQAPGQGLEWMGWINPNSGGTNYAQKFQGWVTMTRDTSISTVYMELSRLRSDDTAVYYCARGFTNWNLDYWGQGTLVTVSS
VL: EIVLTQSPGTLSLSPGERATLSCRASQSVSSSYLAWYQQKPGQAPRLLIYGASSRATGIPDRFSGSGSGTDFTLTISRLEPEDFAMYYCQQYETFGQGTKVEIK
B21: G001_gp1_V06_VRC01c_2021-0019 (antibody, V domains shown)
VH: QVQLVQSGAEVKKPGASVKVSCKASGYTFTGYYMHWVRQAPGQGLEWMGWINPNSGGTNYAQKFQDWVTMTRDTSISTAYMELRRLRSDDTAVYYCARPSYRSGWDMWYWGQGTLVTVSS
VL: B20 VL with M86V, T94G, Q97P, E102D
B22: G001_gp1_V06_VRC01c_2021-0026 (antibody, V domains shown)
VH: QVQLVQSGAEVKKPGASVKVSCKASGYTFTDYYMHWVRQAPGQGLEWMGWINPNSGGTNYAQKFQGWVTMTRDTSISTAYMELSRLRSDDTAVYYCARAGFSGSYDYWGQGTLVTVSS
VL: B20 VL with S26C, M86V, V101L
B23: G001_gp1_V06_VRC01c_2021-0017 (antibody, V domains shown)
VH: not shown
VL: B20 VL with M86V, T94F, Q97P, E102D
B24: G001_gp1_V06_VRC01c_2021-0028 (antibody, V domains shown)
VH: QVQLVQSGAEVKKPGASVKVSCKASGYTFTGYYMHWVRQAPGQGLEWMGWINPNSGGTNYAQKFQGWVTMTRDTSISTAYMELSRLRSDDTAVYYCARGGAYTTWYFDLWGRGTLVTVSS
VL: B20 VL with S31G, A52S, M86V
B25: G001_gp1_V06_VRC01c_2021-0016 (antibody, V domains shown)
VH: QVQLVQSGAEVKKPGASVTVSCKASGYTFTGYYMHWVRQAPGQGLEWMGWINPTSGGTNYGQKFQGRVTMTRDTSISTAYMELSRLRSDDTAVYYCAITTVTSTWAFDIWGQGTMVTVSS
VL: B20 VL with S31N, S32N, K40T, M86V
B26: G001_gp1_V06_VRC01c_2021-0023 (antibody, V domains shown)
VH: QVQLVQSGAEVKKPGASVKVSCKASGYTFTDYYIHWVRQAPGQGLEWMGWINPNSGGTNYAQKFQDWVTMTRDTSITTAYMELSRLRSDDTAVYYCARGVRYSSSWYFGYWGQGTLVTVSS
VL: QSALTQPASVSGSPGQSITISCTGTSSDVGGYNYVSWYQQHPGKAPKLMIYDVSNRPSGVSNRFSGSKSGNTASLTISGLQTEDEADYYCSSYEVFGTGTKVTVL
B27: G001_gp1_V06_VRC01c_2021-0007 (antibody, V domains shown)
VH: QVQLVQSGAEVKKPGASVKVSCKASGYTFTGSYMHWVRQAPGQGLEWMGWINPNSGGTNYAQKFQGWVTMTRDTSISTAYMELSRLRSDDTAVYYCATASSGSYYWYFDLWGRGTLVTVSS
VL: EIVMTQSPATLSVSPGERATLSCRASQSVSSNLAWYQQKPGQAPRLLIYGASTRATGIPARFSGSGSGTEFTLTISSLQSEDFAVYYCQQYETFGQGTKVEIK
B28: G001_gp1_V06_VRC01c_2021-0014 (antibody, V domains shown)
VH: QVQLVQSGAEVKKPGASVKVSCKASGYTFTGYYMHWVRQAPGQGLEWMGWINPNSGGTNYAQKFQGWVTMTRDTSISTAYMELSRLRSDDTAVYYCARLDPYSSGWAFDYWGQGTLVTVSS
VL: B27 VL with E92G
B29: G001_gp1_V06_VRC01c_2021-0012 (antibody, V domains shown)
VH: not shown
VL: B27 VL with V29F, P40S, E92H, Q96P, E101D
B30: G001_gp1_V06_VRC01c_81 (antibody, V domains shown)
VH: not shown
VL: B27 VL with S12C, E92N, T93N
B31: G001_gp1_V06_VRC01c_2021-0022 (antibody, V domains shown)
VH: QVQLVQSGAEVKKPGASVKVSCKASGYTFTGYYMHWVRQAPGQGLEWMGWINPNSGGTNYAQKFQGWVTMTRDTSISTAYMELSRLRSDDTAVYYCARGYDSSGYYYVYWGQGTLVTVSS
VL: B27 VL with E92N, T93N, K99R, V100L
B32: G001_gp1_V06_VRC01c_82 (antibody, V domains shown)
VH: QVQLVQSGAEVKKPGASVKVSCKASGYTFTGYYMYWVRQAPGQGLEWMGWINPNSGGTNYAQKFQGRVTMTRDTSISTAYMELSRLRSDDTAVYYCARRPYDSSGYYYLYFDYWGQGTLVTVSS
VL: B27 VL with Q96G
B33: G001_gp1_V06_VRC01c_2021-0027 (antibody, V domains shown)
VH: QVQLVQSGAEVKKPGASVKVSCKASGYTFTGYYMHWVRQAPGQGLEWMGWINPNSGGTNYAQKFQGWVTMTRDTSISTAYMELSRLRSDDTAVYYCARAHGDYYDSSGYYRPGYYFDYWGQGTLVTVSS
VL: QSVLTQPPSVSGAPGQRVTISCTGSSSNIGAGYDVHWYQQLPGTAPKLLIYGNSNRPSGVPDRFSGSKSGTSASLAITGLQAEDEADYYCQSYEVFGGGTKLTVL

Where a chain is given by its changes, count along the chain named.

In this experiment the target is eOD-GT8 (engineered outer domain germline-targeting version 8), monomer (HIV-1 gp120 engineered outer domain, …).
For B1, the binding result is “binds”.
Under B2 stands “binds”.
To B3 belongs “binds”.
Regarding B4, the binding result is “binds”.
To B5 belongs “binds”; to B6, “binds”; to B7, “binds”.
Regarding B8, the binding result is recorded as “binds”.
For the molecule B9, the binding result is given as “binds”.
Consider B10, for which the binding result was “binds”.
Under B11 stands “binds”; under B12, “binds”; under B13, “binds”.
Take B14: the binding result is recorded as “binds”.
Under B15 stands “binds”.
Under B16 stands “binds”; under B17, “binds”; under B18, “binds”.
Turning to B19, the binding result was “binds”.
On to B20, for which the binding result was “binds”.
To B21 belongs “binds”; to B22, “binds”; to B23, “binds”.
Turning to B24, the binding result was “binds”.
Under B25 stands “binds”; under B26, “binds”; under B27, “binds”.
Consider B28, for which the binding result is “binds”.
As to B29, the binding result is on record as “binds”.
For B30, the binding result is “binds”.
On to B31, for which the binding result was “binds”.
Under B32 stands “binds”; under B33, “binds”.
